Test results taken from PMC4741643.

Target: suppressor of MEK null (sMEK1), full-length human, pGilda fusion (human) (UniProt Q6IN85)
Assay: two-hybrid; EGY48 yeast cells; pGilda-sMEK1 as bait, pJG4-5 fusions as prey; growth on medium lacking leucine, blue colonies on X-gal plates with 2% galactose, β-galactosidase activity with ONPG

Chain of UniProt Q6IN85 (Q6IN85 whole entry, the tested form may be a part): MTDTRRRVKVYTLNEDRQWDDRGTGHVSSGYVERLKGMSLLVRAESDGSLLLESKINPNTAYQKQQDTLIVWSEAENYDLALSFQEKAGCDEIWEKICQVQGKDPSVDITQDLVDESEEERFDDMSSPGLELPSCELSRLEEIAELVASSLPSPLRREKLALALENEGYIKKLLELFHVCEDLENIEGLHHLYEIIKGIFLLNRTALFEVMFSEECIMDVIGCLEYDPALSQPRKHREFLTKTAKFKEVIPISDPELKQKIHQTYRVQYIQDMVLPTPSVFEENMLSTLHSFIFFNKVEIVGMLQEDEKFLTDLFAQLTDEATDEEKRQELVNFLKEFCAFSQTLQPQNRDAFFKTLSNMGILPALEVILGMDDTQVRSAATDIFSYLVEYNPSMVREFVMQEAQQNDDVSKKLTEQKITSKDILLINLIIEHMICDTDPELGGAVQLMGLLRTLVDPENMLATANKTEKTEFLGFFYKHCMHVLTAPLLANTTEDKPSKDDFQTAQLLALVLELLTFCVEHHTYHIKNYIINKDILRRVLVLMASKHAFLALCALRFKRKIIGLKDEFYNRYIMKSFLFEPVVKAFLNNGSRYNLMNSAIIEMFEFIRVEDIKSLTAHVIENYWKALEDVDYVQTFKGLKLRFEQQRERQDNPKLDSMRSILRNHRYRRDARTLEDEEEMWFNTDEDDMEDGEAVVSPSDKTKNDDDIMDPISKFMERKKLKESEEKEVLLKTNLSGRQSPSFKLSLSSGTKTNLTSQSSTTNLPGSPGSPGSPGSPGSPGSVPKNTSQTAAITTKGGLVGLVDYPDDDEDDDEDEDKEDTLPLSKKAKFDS

β-galactosidase activity: 92.3 unit
Substance: vascular endothelial growth factor receptor 2 (VEGFR-2), full-length human, yeast two-hybrid construct (from UniProt P35968 1-1356)
